Test results published in publication PMC10520629.

Experiments:
[1] = biological target: T1, full-length human HACE1 (HECT domain and Ankyrin repeat containing E3 Ubiquitin Protein Ligase 1), wild type, aa 1-909 (human), Q8IYU2; experiment: AUC; sedimentation velocity, 40 000 rpm, 20 °C, continuous c(s) distribution model; settings: remark: other sources report otherwise
T1 chain: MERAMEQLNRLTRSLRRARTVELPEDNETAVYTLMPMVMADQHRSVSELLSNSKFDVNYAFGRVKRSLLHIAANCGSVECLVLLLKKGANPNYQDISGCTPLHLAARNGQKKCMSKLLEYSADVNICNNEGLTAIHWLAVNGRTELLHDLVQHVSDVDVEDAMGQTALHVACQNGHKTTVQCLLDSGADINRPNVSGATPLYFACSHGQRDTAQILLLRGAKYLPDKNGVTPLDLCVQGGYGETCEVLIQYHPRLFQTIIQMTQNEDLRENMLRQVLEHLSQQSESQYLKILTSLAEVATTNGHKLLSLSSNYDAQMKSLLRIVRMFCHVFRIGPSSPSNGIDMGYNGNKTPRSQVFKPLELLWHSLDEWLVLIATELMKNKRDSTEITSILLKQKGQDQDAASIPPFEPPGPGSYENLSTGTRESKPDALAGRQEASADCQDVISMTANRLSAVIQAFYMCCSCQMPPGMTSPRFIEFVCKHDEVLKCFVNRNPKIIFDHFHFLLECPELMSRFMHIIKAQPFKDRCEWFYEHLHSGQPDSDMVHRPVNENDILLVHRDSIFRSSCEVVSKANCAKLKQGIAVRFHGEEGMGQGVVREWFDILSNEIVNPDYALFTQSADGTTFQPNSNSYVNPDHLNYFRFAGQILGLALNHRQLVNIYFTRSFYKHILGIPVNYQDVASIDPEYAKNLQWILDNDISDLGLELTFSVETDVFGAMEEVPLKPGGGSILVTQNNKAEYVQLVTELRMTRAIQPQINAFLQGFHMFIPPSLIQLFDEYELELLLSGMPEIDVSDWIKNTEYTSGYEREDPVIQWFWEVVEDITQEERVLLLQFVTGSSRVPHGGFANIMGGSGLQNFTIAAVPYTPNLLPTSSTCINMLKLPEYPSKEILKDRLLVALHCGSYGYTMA

[2] = biological target: T1, full-length human HACE1 (HECT domain …); experiment: SEC; gel filtration of purified full-length HACE1 (Superdex; 20 mM HEPES pH 8.0, 150 mM NaCl, 5% glycerol, 1 mM DTT); settings: remark: other sources report otherwise

percent of molecules as dimer or higher oligomers [1]: 79% | stoichiometry N [2]: 2
B1: full-length human HACE1 (HECT domain and Ankyrin repeat containing E3 Ubiquitin Protein Ligase 1), wild type, aa 1-909, Q8IYU2 1-909 (enzyme)
chain: T1 chain
